Biological target: Dendritic cell-specific intercellular adhesion molecule 3-grabbing nonintegrin (DC-SIGN), on the Biacore chip (UniProt Q9NNX6)
Assay: SPR

Sequence of UniProt Q9NNX6 (Q9NNX6 whole entry): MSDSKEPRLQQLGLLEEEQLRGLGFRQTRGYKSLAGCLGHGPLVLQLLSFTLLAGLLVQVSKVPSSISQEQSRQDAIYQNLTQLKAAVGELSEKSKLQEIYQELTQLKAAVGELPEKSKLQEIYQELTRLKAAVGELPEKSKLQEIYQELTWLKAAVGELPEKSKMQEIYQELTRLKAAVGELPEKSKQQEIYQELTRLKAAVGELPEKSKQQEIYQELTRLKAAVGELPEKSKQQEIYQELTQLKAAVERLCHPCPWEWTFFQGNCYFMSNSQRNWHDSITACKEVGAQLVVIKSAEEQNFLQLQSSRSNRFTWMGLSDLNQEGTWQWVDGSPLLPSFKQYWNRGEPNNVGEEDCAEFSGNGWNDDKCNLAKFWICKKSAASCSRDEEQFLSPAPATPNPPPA

Q: Which Kd does the source give for “Surface layer protein B (SlpB) from Levilactobacillus brevis JCM 1059 (natural protein)” here?
A: Its Kd is 30.3 nM.

From paper doi:10.1101/2023.04.06.534471
